Measured values from patent US6653127B1, “Single-chain recombinant complexes of hepatitis C virus NS3 protease and NS4A cofactor peptide” (Schering Corporation, priority 1997, dated 2003).

Columns and labels:
[1] = test system: double stranded RNA substrate; test: Nucleic acid unwinding activity, scintillation proximity assay; format: biochemical
Procedure: The newly engineered single-chain recombinant His-NS4A21-32-GSGS-NS33-631 (SEQ ID NO: 4) was assayed for nucleic acid unwinding activity using a scintillation proximity assay (SPA, Amersham Life Science Inc., Arlington Height, Ill.). The unwinding activity present in this covalent His-NS4A21-32-GSGS-NS33-631 complex was compared with that of the full length His-NS31-631-NS4A1-54 complex under their corresponding optimal buffer conditions. The double stranded RNA substrate (Oligos, Etc., Inc. Wilsonville, Oreg.) used in the assay contained a template 5′-GCUCGCCCGGGGAUCCUCUAGGAAUACACGUUCGAU-3′ (SEQ ID NO: 121) annealed to a primer 5′-CUAGAGGAUCCCCGGGCGAGCCCUAUAGUGAGUCGU-3′ (complementary sequences of the template and the primer are underlined). This substrate is end-labeled with ^33P using T4 polynucleotide kinase.
The assay conditions for the covalent His-NS4A21-32-GSGS-NS33-631 complex were 100 mM MOPS [pH 7.0], 0.5 mM MgCl2, 2 mM ATP, 0.5 mM DTT, […] BSA, 2% dimethylsulfoxide (DMSO) and 1 U RNase inhibitor (5 prime→3 prime, Inc., Boulder, Colo.). For the full length His-NS31-631/NS4A1-54 complex, the assay conditions were 100 mM PIPES [pH 6.0], 1 mM MgCl2, 2 mM ATP, 0.6 mM DTT, […] BSA and 1 U RNase inhibitor. In both reactions, 0.5 nM double stranded RNA substrate in a final volume of […] was used. The reaction was carried out at 37 ∞C. for 1 h and terminated by an addition of […] of 0.5 M EDTA. The released primer was captured using […] of 100 nM biotinylated capture oligomer (5′-biotin-GCT-CGC-CCG-GGG-ATC-CTC-TAG-3′) (Gibco/BRL, Grand Island, N.Y.) (SEQ ID NO: 123) in 2×hybridization buffer (40 mM HEPES [pH 7.3], 2M NaCl, 2 mg/ml BSA) at 37 ∞C. for 1 h. The primer-oligomer complex was retained by Streptavidin coated SPA beads (SPA, Amersham Life Science Inc., Arlington Height, Ill.), filtered and washed thoroughly with wash buffer (20 mM HEPES [pH 7.3], 15 mM NaCl, 1.5 mM sodium citrate and 0.05% SDS). The amount of the released labeled primer was quantified using a TopCount reader (Packard A991200, Meriden, Conn.).

[2] = target: T1, helicase domain of the NS3 protein (Hepatitis C virus genotype 1b, UniProt P26663, A1092G/F1173S/K1113A/P1112Q); test: Autocleavage observed during purification; design: species or system HCV
T1 construct: N-terminal end of the NS3 protease (NS3 amino acids 3-631) via the linker GSGS; histidine tag followed by a thrombin site (N); made in house; host or cells: E. coli BL21(DE3)
Source text: Also provided are NS4A-tethered forms of NS3 full-length domain. […] To prevent autocleavage of the full-length covalent complexes, the catalytic serine residue at position 139 is mutated to alanine. The amino acid sequence of one such embodiment is defined by SEQ ID NO: 15. The mutation of the full length constructs at position 139 can also be made in the NS4A-tethered forms of the NS3 catalytic domain, and can be made in combination with any of the aforementioned mutations to increase solubility and stability while preventing autocleavage. Representative embodiments are set forth in SEQ ID NOs: 5-8, 15-18 and 20.

[3] = ATPase activity, [a-32P]ATP hydrolysis by thin layer chromatography; format: biochemical
Procedure: ATPase activity of the covalent His-NS4A21-32-GSGS-NS33-631 complex (SEQ ID NO: 4) was monitored by direct measurement of [a-^32P]ATP hydrolysis using thin layer chromatography. The enzyme was incubated with 1 mM ATP mixed with [a-^32P]ATP (3000 Ci/mmol, approximately 0.5 mCi per reaction) in a reaction buffer containing 50 mM HEPES [pH 7.3], 10 mM KCl, 0.5 mM DTT, […] bovine serum albumin, fraction V (BSA), 1 mM MgCl2 in the presence or absence of 1 mM polyuridylic acid (poly U) (Pharmacia, Piscataway, N.J.) in a final volume of […]. The reaction was carried out at 37 ∞C. for 1 h and terminated by an addition of […] of 0.5 M EDTA. Half a microliter of the reaction mix was spotted onto a polyethyleneimine-cellulose sheet (SA Scientific Adsorbents Inc., Atlanta, Ga.) and developed by ascending chromatography in 0.375 M potassium phosphate buffer [pH 3.5]. The cellulose sheet was dried and quantified with a Storm 860 PhosphoImager (Molecular Dynamics, Sunnyvale, Calif.).

B1: His-NS4A21-32-GSGS-NS33-631: NS4A 21-32 tethered by GSGS to full-length NS3 residues 3-631, His tag; printed SEQ ID NO: 4 (protein)
chain: MGSSHHHHHHSSGLVPRGSHMGSVVIVGRIILSGSGSITAYSQQTRGLLGCKKTSLTGRDKNQVEGEVQVVSTATQSFLATCVNGVCWTVYHGAGSKTLAGPKGPITQMYTNVDQDLVGWQAPPGARSLTPCTCGSSDLYLVTRHADVIPVRRRGDSRGSLLSPRPVSYLKGSSGGPLLCPSGHAVGIFRAAVCTRGVAKAVDFVPVESMETTMRS
modifications: His tag
With B1 the “fold less complex required for similar percentage of unwound products vs full length His-NS31-631/NS4A1-54” value [1] was 10 fold, the “nucleic acid unwinding activity” value ([1]; FIG. 6, 37 C, 1 h, 0.5 nM dsRNA) was “proportional to the concentration of enzyme” and the “product released, fold more than equivalent concentration of full length His-NS3/NS4A1-54 complex” value ([1]; linear range of the assay, 1-10 pM enzyme) was 5-6 fold. For the same molecule, the “autocleavage in the helicase domain during purification” value [2] was “a considerable amount of autocleavage”, the “increase of ATP hydrolysis in the presence of poly U” value ([3]; 1 mM poly U, all enzyme concentrations examined) was 8-13 fold and the ATPase activity ([3]; FIG. 7, 1 mM ATP, 37 C, 1 h) was “poly U dependent ATPase activity which was proportional to the concentration of the enzyme”. For the same molecule, the “ATP hydrolysis in the absence of poly U” value ([3]; no poly U) was “minimal”.
